Source: publication PMC12886537, “Dual-mode aptamer-driven biosensing platform for ultrasensitive and mutation-resilient detection of the SARS-CoV-2 nucleocapsid protein”

B1: NP14 (structured_DNA)
DNA: TTTTTAACACGACTCTCCTGTGGCCAGCGAACTGATTGCCTGTCGTGCCATG
B2: NP1 (ssDNA)
DNA: TTTTTAACACGACCTCACTGTGCCGGCCACAGCTCACCACAGTGGGCCCATG
B3: NP11 (ssDNA)
DNA: TTTTTAAGCCCACTTTTCTGTGCCGGGCACAGCATGGGCTTGTCGTGCCATG
B4: NP14a (structured_DNA)
DNA: TTTTTAACACGACTCTCCTGTGGCATTGCCTGTCGTGCCATG
B5: NP14b (structured_DNA)
DNA: TTTTTAACACGACTCTCCTGTGGCCAGCGAACTGATGTGCCATG

Key:
[1] = target: T1, SARS-CoV-2 nucleocapsid (N) protein (SARS-CoV-2 (original/prototype), UniProt P0DTC9 1-419); assay: ELONA; conditions: protein: recombinant; tags: His; chain copies: 2; label: biotin (ELONA); 5'-FAM (flow cytometry, confocal)
SARS-CoV N protein = SARS-CoV N protein (SARS-CoV, UniProt P59595 1-422); conditions: protein: commercial, chain copies: 2
[2] = target: T1, SARS-CoV-2 nucleocapsid (N) protein; assay: SPR; single concentration; conditions: protein: recombinant; tags: His; chain copies: 2

Row | Binder | binding result [2] | binding result (SARS-CoV N protein) | other results
1 | B1 |  |  | Kd [1]: 3.68 nM; Kd (SARS-CoV N protein; label: biotin (ELONA), 5'-FAM (flow cytometry, confocal)): 3.45 nM
2 | B2 | binds |  | 
3 | B3 | binds |  | 
4 | B4 |  | binds | 
5 | B5 |  | binds | 
